Publication PMC11178655, “Dosimetry and pharmacokinetics of [^177Lu]Lu-satoreotide tetraxetan in patients with progressive neuroendocrine tumours” (European Journal of Nuclear Medicine and Molecular Imaging, 2024)
Where a SMILES comes first, the peptide text is derived from it. Bridges are numbered along the chain shown (N, C = ends). [ ]: non-standard residue; d: D form. The star is where a group is joined. DOTA = O=C(O)CN1CCN(CC(=O)O)CCN(CC(=O)*)CCN(CC(=O)O)CC1; dPhe(4-NHCONH2) = NC(=O)Nc1ccc(C[C@@H](N)C(=O)O)cc1; Dihydroorotyl(S) = O=C1C[C@@H](C(=O)*)NC(=O)N1; Phe(4-Cl) = N[C@@H](Cc1ccc(Cl)cc1)C(=O)O; Phe(4-NH2) = Nc1ccc(C[C@H](N)C(=O)O)cc1

Test system: patients with progressive, SSTR-positive NETs
Experiment: Patient-specific image-based dosimetry (NUKDOS) of tumours and organs, phase I/II trial
Type: in vivo, human
Settings: median (range)
Method: In both parts A and B of the study, patients underwent planar whole-body imaging at 4 h and 1, 2, 3, and 6 days after each [^177Lu]Lu-satoreotide tetraxetan treatment cycle. Patients in part A also underwent single-photon emission computed tomography/computed tomography (SPECT/CT) at 24 h after each [^177Lu]Lu-satoreotide tetraxetan cycle. Those in part B underwent SPECT/CT, immediately before or after planar scintigraphy, at 4 h, and 1, 2, 3, and 6 days after each [^177Lu]Lu-satoreotide tetraxetan administration. Full details of the image acquisition methodology are provided in the Supplementary Information.
Delineation of tumour volumes was performed on anatomical SPECT/CT images after each [^177Lu]Lu-satoreotide tetraxetan administration. Tumours with a longest diameter < 2 cm were not analysed due to the difficulty in correcting for partial volume effects caused by the limited spatial resolution of the SPECT/CT systems. For study inclusion in part A, one tumour lesion ≥ 2 cm must have been present for eligibility; in part B, two or more tumour lesions ≥ 2 cm must have been present, each with an uptake on SSTR imaging higher than that of normal liver parenchyma (target lesion on [^68Ga]Ga-DOTA-TATE or -DOTA-TOC positron emission tomography: maximum standardised uptake value [SUVmax] ≥ 2x the mean SUV [SUVmean] of liver background; or ^111In-scintigraphy/SPECT: Krenning score 3 or 4 [uptake > normal liver, or uptake > spleen or kidneys, respectively [26]]).
Reconstruction parameters were set up to produce isotropic voxels of < 5 mm; voxels were continuous throughout the field of view. Anatomic coverage of the acquisition was determined according to the patients’ tumour locations on the planar whole-body scan acquisition with liver, both kidneys and spleen in the same bed position. For organs showing [^177Lu]Lu-satoreotide tetraxetan uptake, regions of interest (ROIs)/volumes of interest (VOIs) were drawn manually over the whole organs of interest (whole body, left and right kidneys, liver, spleen, and bone marrow), using the NUKDOS software for planar whole-body scans and the SPECT/CT acquired in part A [27]. VOIs for the same organs were drawn for all SPECT/CT images acquired in part B. All ROIs/VOIs were then used for activity quantification. Time-integrated activity coefficients (TIACs) for a given source volume were computed by integrating the time-activity curves. Full details of the tumour delineation and activity quantification methodology are provided in the Supplementary Information.
Patient-specific dosimetry calculations were performed after each treatment cycle in both parts A and B, using the absorbed dose calculation features of the NUKDOS software for image-based dosimetry calculations. The NUKDOS software was chosen as it allowed for an integral approach to organ dosimetry (including image quantification, time-activity curve-fitting and dosimetry calculation). For the bone marrow, both image-based and blood-based calculations were performed in part A [28, 29]. In part B, only image-based bone marrow dosimetry was performed. Organ Level INternal Dose Assessment/EXponential Modelling (OLINDA/EXM) version 1.0 software, the most widely used version at the time of the study, was used to perform model-based dosimetry calculations, which were only performed after the first [^177Lu]Lu-satoreotide tetraxetan cycle for patients in part B. To generate organ-specific absorbed doses, TIACs were used as input data. Full details on OLINDA/EXM software settings and organ-specific TIAC calculation methods are provided in the Supplementary Information.
All images were acquired with a 20% energy window around the main photopeak of ^177Lu (208 keV). For scatter correction, the triple-energy window method was applied based on the recommendation of the Committee on Medical Internal Radiation Dose. Whole-body images were acquired with a scanning time of 20 cm/min in a 256 × 1,024 matrix. […]

[1] = Part A (4.5 GBq, 300 µg), image-based dosimetry, n = 11
[2] = Part A (4.5 GBq, 300 µg), n = 7
[3] = Part A (4.5 GBq, 300 µg), n = 9
[4] = Part A (4.5 GBq, 300 µg), n = 11
[5] = Part A (4.5 GBq/cycle), image-based dosimetry, n = 10
[6] = Part A (4.5 GBq/cycle), n/n-les 9/16
[7] = Part A and B, image-based dosimetry, n = 21
[8] = Part B Cohort 1 (6.0 GBq, reduced to 4.5 GBq after three patients; 300 µg), n = 6
[9] = Part B Cohort 1, image-based dosimetry, n = 1
[10] = Part B Cohort 3 (4.5 GBq, 300 µg), n = 9

C[C@@H](O)[C@@H]1NC(=O)[C@H](CCCCN)NC(=O)[C@@H](Cc2ccc(NC(N)=O)cc2)NC(=O)[C@H](Cc2ccc(NC(=O)[C@@H]3CC(=O)NC(=O)N3)cc2)NC(=O)[C@H](NC(=O)[C@H](Cc2ccc(Cl)cc2)NC(=O)CN2CCN(CC(=O)O)CCN(CC(=O)O)CCN(CC(=O)O)CC2)CSSC[C@@H](C(=O)N[C@H](Cc2ccc(O)cc2)C(N)=O)NC1=O [[^177Lu]Lu-satoreotide tetraxetan, metal not drawn] ({DOTA}-[Phe(4-Cl)][dC][Phe(4-NH2)](Dihydroorotyl(S))[dPhe(4-NHCONH2)]KTC[dY]-NH2; disulfide 2-7 (inferred); C-terminus assumed)
Cycle 1 ADC, Bone marrow [1]: 0.1 (0.0–0.2) Gy/GBq | Cycle 3 ADC, Bone marrow [1]: 0.1 (0.0–0.2) Gy/GBq | Cycle 1 ADC, Liver [2]: 0.2 (0.1–0.3) Gy/GBq | Cycle 3 ADC, Liver [2]: 0.2 (0.1–0.4) Gy/GBq | Cycle 1 ADC, Spleen [3]: 0.8 (0.2–1.8) Gy/GBq | Cycle 3 ADC, Spleen [3]: 0.5 (0.3–1.0) Gy/GBq | Cycle 1 ADC, Kidneys [4]: 1.1 (0.5–1.9) Gy/GBq | Cycle 1 ADC, Tumours [4]: 2.6 (0.4–14.3) Gy/GBq | Cycle 3 ADC, Kidneys [4]: 1.0 (0.7–1.8) Gy/GBq | Cycle 3 ADC, Tumours [4]: 1.7 (0.3–5.0) Gy/GBq | Ratio of ADCs Cycle 2/Cycle 1 (300 vs. 300 µg), Bone marrow [5]: 89.5 (54.7–152) % | Ratio of ADCs Cycle2/Cycle 3 (300 vs. 300 µg), Bone marrow [5]: 109 (23.9–297) % | Ratio of ADCs Cycle 2/Cycle 1 (300 vs. 300 µg), Spleen (Part A (4.5 GBq/cycle), n = 9): 93.0 (50.0–270) % | Ratio of ADCs Cycle2/Cycle 3 (300 vs. 300 µg), Spleen (Part A (4.5 GBq/cycle), n = 9): 127 (81.1–334) % | Ratio of ADCs Cycle 2/Cycle 1 (300 vs. 300 µg), Body (Part A (4.5 GBq/cycle), n = 11): 108 (38.3–142) % | Ratio of ADCs Cycle 2/Cycle 1 (300 vs. 300 µg), Kidney (Part A (4.5 GBq/cycle), n = 11): 116 (55.8–140) % | Ratio of ADCs Cycle2/Cycle 3 (300 vs. 300 µg), Body (Part A (4.5 GBq/cycle), n = 11): 95.4 (69.5–119) % | Ratio of ADCs Cycle2/Cycle 3 (300 vs. 300 µg), Kidney (Part A (4.5 GBq/cycle), n = 11): 101 (80.6–179) % | Ratio of ADCs Cycle 2/Cycle 1 (300 vs. 300 µg), Liver lesions [6]: 91.8 (28.6–156) % | Ratio of ADCs Cycle2/Cycle 3 (300 vs. 300 µg), Liver lesions [6]: 127 (73.3–343) % | Ratio of ADCs Cycle2/Cycle 3 (300 vs. 300 µg), All lesions (Part A (4.5 GBq/cycle), n/n-les 11/23): 125 (73.3–343) % | Ratio of ADCs Cycle 2/Cycle 1 (300 vs. 300 µg), All lesions (Part A (4.5 GBq/cycle), n/n-les 11/24): 83.4 (28.6–156) % | Cycle 3 ADC, Bone marrow [7]: 0.1 (0.0–0.2) Gy/GBq | Ratio of Cycle 3/ Cycle 1 ADCs, Bone marrow [7]: 105 (22.4–400) % | Cycle 1 ADC, Bone marrow (Part A and B, image-based dosimetry, n = 29): 0.1 (0.0–0.6) Gy/GBq | Ratio of Cycle 3/ Cycle 1 ADCs, Liver (Part A and B, n = 7): 88.5 (43.8–132) % | Ratio of Cycle 3/ Cycle 1 ADCs, Spleen (Part A and B, n = 18): 83.2 (40.9–231) % | Ratio of Cycle 3/ Cycle 1 ADCs, Tumours (Part A and B, n = 23): 78.6 (16.0–195) % | Ratio of Cycle 3/ Cycle 1 ADCs, Kidneys (Part A and B, n = 25): 98.6 (59.1–198) % | Cycle 3 ADC, Liver (Part A and B, patient-specific dosimetry, n = 7): 0.2 (0.1–0.4) Gy/GBq | Cycle 1 ADC, Liver (Part A and B, patient-specific dosimetry, n = 8): 0.2 (0.1–0.3) Gy/GBq | Cycle 3 ADC, Spleen (Part A and B, patient-specific dosimetry, n = 19): 0.7 (0.3–1.5) Gy/GBq | Cycle 3 ADC, Tumours (Part A and B, patient-specific dosimetry, n = 24): 4.0 (0.3–70.3) Gy/GBq | Cycle 3 ADC, Kidneys (Part A and B, patient-specific dosimetry, n = 26): 0.8 (0.4–1.8) Gy/GBq | Cycle 1 ADC, Spleen (Part A and B, patient-specific dosimetry, n = 27): 0.8 (0.2–1.8) Gy/GBq | Cycle 1 ADC, Tumours (Part A and B, patient-specific dosimetry, n = 33): 5.0 (0.4–83.3) Gy/GBq | Cycle 1 ADC, Kidneys (Part A and B, patient-specific dosimetry, n = 35): 0.9 (0.4–1.9) Gy/GBq | Ratio of Cycle 3/ Cycle 1 ADCs, Bone marrow (Part A, image-based dosimetry, n = 11): 101 (22.4–302) % | Ratio of Cycle 3/ Cycle 1 ADCs, Liver (Part A, n = 7): 88.5 (43.8–132) % | Ratio of Cycle 3/ Cycle 1 ADCs, Spleen (Part A, n = 9): 61.5 (40.9–231) % | Ratio of Cycle 3/ Cycle 1 ADCs, Kidneys (Part A, n = 11): 106 (59.1–139) % | Ratio of Cycle 3/ Cycle 1 ADCs, Tumours (Part A, n = 11): 76.7 (16.0–195) % | Cycle 1 ADC, Bone marrow (Part B Cohort 1 (6.0 GBq, reduced to 4.5 GBq after three patients; 300 µg), image-based dosimetry, n = 6): 0.1 (0.1–0.6) Gy/GBq | Cycle 1 ADC, Liver (Part B Cohort 1 (6.0 GBq, reduced to 4.5 GBq after three patients; 300 µg), n = 1): 0.2 (0.2–0.2) Gy/GBq | Cycle 1 ADC, Tumours (Part B Cohort 1 (6.0 GBq, reduced to 4.5 GBq after three patients; 300 µg), n = 5): 3.9 (1.9–83.3) Gy/GBq | Cycle 1 ADC, Kidneys [8]: 0.7 (0.6–1.0) Gy/GBq | Cycle 1 ADC, Spleen [8]: 1.0 (0.5–1.1) Gy/GBq | Cycle 3 ADC, Bone marrow [9]: 0.1 (0.1–0.1) Gy/GBq | Ratio of Cycle 3/ Cycle 1 ADCs, Bone marrow [9]: 64.3 (64.3–64.3) % | Cycle 3 ADC, Kidneys (Part B Cohort 1, n = 1): 0.7 (0.7–0.7) Gy/GBq | Cycle 3 ADC, Spleen (Part B Cohort 1, n = 1): 0.5 (0.5–0.5) Gy/GBq | Ratio of Cycle 3/ Cycle 1 ADCs, Kidneys (Part B Cohort 1, n = 1): 111 (111–111) % | Ratio of Cycle 3/ Cycle 1 ADCs, Spleen (Part B Cohort 1, n = 1): 82.3 (82.3–82.3) % | Cycle 1 ADC, Bone marrow (Part B Cohort 3 (4.5 GBq, 300 µg), image-based dosimetry, n = 6): 0.1 (0.1–0.1) Gy/GBq | Cycle 1 ADC, Spleen (Part B Cohort 3 (4.5 GBq, 300 µg), n = 6): 1.0 (0.2–1.5) Gy/GBq | Cycle 1 ADC, Kidneys [10]: 0.9 (0.5–1.2) Gy/GBq | Cycle 1 ADC, Tumours [10]: 6.8 (2.1–28.2) Gy/GBq | Cycle 3 ADC, Bone marrow (Part B Cohort 3 (4.5 GBq, 300 µg; 700 µg at cycle 2), image-based dosimetry, n = 6): 0.1 (0.0–0.1) Gy/GBq | Cycle 3 ADC, Spleen (Part B Cohort 3 (4.5 GBq, 300 µg; 700 µg at cycle 2), n = 5): 0.8 (0.3–1.1) Gy/GBq
